assay: soluble on expression in E. coli; label from the status in PepcDB or PDB records

Soluble on expression in E. coli, not soluble:
MGSDKIHHHHHHMGKKTTIAIAHSDADLGKPAEYTRDQLDLVKAMIRQIADQTMGGMGNIVHKGDKVLIKINTVIPVPANAGFTTDPRMLEALIELVQEQNPGRIQIGERCAMGADTMEAMRVCGIVDVAERTGVELCPFEHAEFDMYKIDRPISFNEFPVPRPVRDADCYIGLPKMKVHVHTTFTGAMKLQFGNLPNYDWMVRCHRDDIYQKIVNLTRAANPKWFVMDSLYACQGNGPFSPYSEDLIKDFNTICGGPDPVAVDTVCEALMDWDYPGTNVPSTVLGAAEGLGTNRMNEIELAGAPLDKVKRRFKRQNTILQGQYPNVNLVMGSTCEAGCKAIVRIQLDQLQADGTLERLEKPITIFTGLQFEEHINKVEGDVLIVGDCAKGMLEKFPDARYWGDCEEYPNCTPIWANRPDVGIANYVRQLTAVREGNAR
MGSDKIHHHHHHMGKLVLAAKVSHVPSLMLSETSDSPLRQARAGAVAALRELGRRAKEREVTTFVVFDTHWLSNFGYHINANAQHRGSFTSHEAPHMIQDLRYDLPGDPALAQAIAAEAQSHGLKVLAHQVPTLGLEYGTIVPMHYLNSDGWAKIVSIASPLFTSIEESRALGEATRRAIDASDERVAILASGSLSHRLWPNKDLGPDAWTTIASEFNRQVDLRVLQLWQERRYREFTAMLPDYAVKCNGEGGMADTVMLFAALGWDDYTGEAEPLCDYFPSSGSGQVNVEFHVS
MGSDKIHHHHHHMGLLNLLSTNRNENLFLPAHGRGNSLPKNIKTLLRLRPGIWDLPELFEIGGPLISEGAIAESQKSSAYEVGVDRCWYGVNGATGLLQSSLLALAHPGQAVLMPRNIHKSCIQACLFGGLTPLLFDVPYLTDRGHASVMDRKWLQRVLKKAKEYEDDIAAVVLVNPTYQGYSADMESLIKEIHSHSLPVLVDEAHGAYLISQIRPDLPKSAISFGADLVVHSLHKSASGLVQSAVLWSQGDKVDPFKIERAIELLQTSSPSSLLLASCESSIKELLESKGIKKLRLCIEEAEMLKDFLIKNEVPLLKNSDPLKIILHTSKFGLSGIEVDKSFIRKRMIGELAEPGTLTFCLGLSSHKRLGKRFVRIWNEILKACGKQKPCFFKRPPFGIVSKPYKSYSDSWGSNFEKVNLKDAIGRISVEMVCPYPPGIPLLIPGEILDEARVDWLIEQKSFWPEQISDFVRVIS
MGSDKIHHHHHHMGLLYRETYEVPFYESDTNHYMKLPQLLALALQISAKQSLKLGIGDDIVFKRYGLVWVVTDYIIDIERLPKHAEKIVIETEAKAHNKLLCYRYFYIYGEDGQKIITISSAFVLMDFKTRKIHPVLDDITSIYQSQRIKKVIRGPKYHPIGDSKVKQYHVRYFDLDMNGHVNNSKYLEWMYDVLDLDFLSSHIPKKIDLKYIKEIQYGTDIKSHWYQDGLVTRHDIIGGDAIHAQARIEWQEKKED
MGSDKIHHHHHHMGLRILQVMAGAEQGGAELFFERLCIALHRAGLHQHVVMREASVRLARMREAGLRPVLLPFGGRFDFKTGRALRQEIARFQPAVVLSWMNRATRFVRPGNHVFCARLGGYYDLKYYRGCDWLVCNTEDIRDYVIKQGFPAERAVHLPNFVPQQHMAPTARKLLYTPENAPLVLALGRLHENKAFDVLLRALALVPDVYLWLAGEGPLRASLETLAQDLGVKPRVRFLGWRDDTPALYAAADLVVFPSRHEPLGNVVLEAWAQRTPMVSTRTDGPARLITSGHNGLLVPIDDHRAMAGAIRQAFGEPGLGEAMARAGWDSYLAAYTEEKVVASYRSFFETIVAERSGAVDRG
MGSDKIHHHHHHMGNVIVVTSGKGGVGKTTITANLGCALAKLGEKVCLIDADIGLKNLDIVLGLENRIVYTMIDVVNGKVSPQEALVKHKMLKNLYLLPASQIATKEMISPNDMKAIVKELIPHFDYIIIDSPAGIERGFRNAVAPAERVLVVTTPELPAISDADRVIGLLENFGFSDEKINVIINRFKPHMVKKGEMLTTDDIKHTLSLEIIAVIPDSEDIIVASNTGIPVSLNGNSRISKNFENLARRIRGEGVPLENDFVTVSKGLIDTLKDFFSKLKRG
MGSDKIHHHHHHMGTAKGNITNWTQYNQVLTQRGSLTFWMDDAAIKHWYNQHPSGRQGRSNTYSDSAISTALMIKGVFKLPLRALYGFINSLFRLMDVDLKSPDYSCISKRAKTVEVNYRLRSKGPARHILIDATGLKVFGEGEWKIRKHGKEKRRIWRKMHLAVDADTREIVSAVASLDNVHNSEVIPTLINPLRCKIKQVSADGAYDTKHCYAVLQRKGITAIIPSRKNAGYRRGEQPRNEAVDALKERSVSLVEA
MGSDKIHHHHHHMGTFFVDFYNEYPDTSYIKIPTNPLDRVIGQDDAVKIAMVAAKQRRHLLLVGPPGVGKSMIAQAMSFYIDRPTEEIRVVHNPQYPERPFVEIKTREEVMAEREEETSTSGIIIDPKDAPTSVAERLGYRCSKCGFYSSPSDAVCPNCNSPKIQMGTQGPFGDVFNVIGAAFGVQNNLDKVTLTRRNGDHDEIIVYERYNDKIRVLDEKTLERRRRLEKKSPSKTIVPIDRNPFVLATGASETELLGDVRHDPYGGHPQLGTLPYERVIAGAVHEAHQGVLFIDEITHLGNLQRYILTAMQEKTFPITGRNPQSAGASVRVDKVPADFILVAACNINDLPYILSPLRSRIVGNGYEILMKTTMKDTDENRMKYLQFISQEITMDGKIPHMTMEAAELIIEEGKKRARIIDKKNNELTLRLRELGGLIRAAGDIAVFKGNKLIEKEDVEEAIKLYVPVEEKITKEYGSMAAAYSSENTTSQKDFYNYNLDDRSYE
MGSDKIHHHHHHMGVTCVSQMPVAEGKSVQQTVELLTRKLEMLGAEKQGTFCVDCETYHTAASTLGSQGQTGKLMYVMHNSEYPLSCFALFENGPCLIADTNFDVLMVKLKGFFQSAKASKIETRGTRYQYCDFLVKVGTVTMGPSARGISVEVEYGPCVVASDCWSLLLEFLQSFLGSHTPGAPAVFGNRHDAVYGPADTMVQYMELFNKIRKQQQVPVAGIR
MGSDKIHHHHHHMGYVAVRGGSEAISRAEELVTCLRLLGGSTPLQLPQIRDQLRHAVSRAMHEGALYAPLLAALALKQAEGDSIEAAFLLRAYRTTLPRVMASLPASGRDISCLRRISASFKDIPGGQILGPASDYLIRLLQPDLAHETIVDVARAAEQYAALVEKGGIRSGEWGRFPKVADYMRQEQMIVDIPADSEETEPFDITREPLVFPCPRSARLQALMQADTGSLMCLAYSSVRGYGDAHPALVELRYGYLAIQVAHPLTGEPITIGEIEVTETEVASKAHSVTSRTGTPRFNVGYGFAFGQSELKTMSMAILDSVLTQARAGSLAGESGPAADEEFVLLHTDGIEASGFVAHFKLPHYVTFAADLSVLDRARDHHAQQQSRLHQLVDQALTE
MGSDKIHHHHHHMHAIGFTDHLPIEDPASLRDVTISKPSAQGHDLLVQVQAVAVNPVDVSVRKTGHEHRMRPKILGWDATGIVTAVGEAVTLFQPGDHVFYAGSFRRPGCDSAYHLVDERLVGHAPATLTTAARAAMPLTSLTAYEALFEQLHIPFDPAKPNSEKCNQTILIINGAGGVGSIATQLAKLAGLTVISSASRPESIAWTQQHGADLVVNHHHDLVSEVHALGIKDVDYILGLSDLDSHWNEICTLIKPGGHIASITENRRPIDLKKLTKKRGTFAWEWMYSKSYYHTADMISQHDILETIADLLDRGLLQSTLSQTLRPINALNLRQAHQLIEQHHMIGKVVIEGWE
MGSDKIHHHHHHMHFIMMKLFRVVKRGYYISYAILDNSTIIRLDEDPIKALMRYSENKEVLGDRVTGIDYQSLLKSFQINDIRITKPIDPPEVWGSGISYEMARERYSEENVAKILGKTIYEKVYDAVRPEIFFKATPNRCVGHGEAIAVRSDSEWTLPEPELAVVLDSNGKILGYTIMDDVSARDLEAENPLYLPQSKIYAGCCAFGPVIVTSDEIKNPYSLDITLKIVREGRVFFEGSVNTNKMRRKIEEQIQYLIRDNPIPDGTILTTGTAIVPGRDKGLKDEDIVEITISNIGTLITPVKKRRKIT
MGSDKIHHHHHHMHKFNPDRIQIGISACLLGEQVRFDGGHKNSAYCQQELKPHFDFVPVCPEMAIGLGAPRKSIRQVRIEGEIRVRSADGSIDVTEQLQSFCNNKADGLGFLGGYLFCSKSPTCGMERVPVYKADGSGGFKEGVGVFAAALMKRFPHLPVEEEGRLHDLVIRENFFTRVYAYHDWHCMRLKGLTRKALTDFHARYKYLLLSHSPAIYRTLGPLLAGDGELEAVADSYFDGFMTALRHKASRRNHTSALQHIQGYFKKFLSGSQKAELSDAILAYRQGVQPLLVPITLIRHYLREHPNDYIAAQVYLNPHPDSLRLRYAY
MGSDKIHHHHHHMHLSNSPNSHDPDAQARFWFARQQGQTLSEAEQQQLAEWLAANPLHQDAWRRVEEDWLAIDRYRHALNDELKKARRNRPGQHKAAFQLKRRAAAAALLVAVCIPVLYQGMTGTTTYWNTLKGEQQQITLAGGSTLNLDTATRITVTQNWFTHHVQLHEGEIYLETASSDWHTLRVSAEHYEIRDIGTRFSVRYIPDQFMVEVAEGTVEVKKQGQLVLLQAGEVLSIITGSNEWRLAALPAGDIAHWRKGLLVFNAHRLHDVLHEIARYHTVQFDLADSAIGEIQVSGRFKLDELDTNLQIIADTLKINIEHPAPGRYRLGALRQSTR
MGSDKIHHHHHHMHQTILHAFSQHAASCYPNECCGLLIRQGNKAQYVKCENKATNKADEFVIDPQQYADIEELGAIIGICHSHPDASSKPSDRDRAMCEASGLPWHILSWPDGDLRTIVPTGERKSLLNRPFVHGVWDCYSCVRDWYSEVQQIHLPDFARQDGWWEGEQELYLDNFAKAGFVALPNINLADLQIGDVFLMQIQSQRVNHAAVYVGEGKILHHLYGRLSRYDIYGGYWQRNTRLIVRHCQ
MGSDKIHHHHHHMHSKTFGDVSIDEMVSRIKEFILKDNNCNYKITIGTDSQNKNLTKVVVVVAIHRIGSGGIFFYDIKHVHKISNVRQKIYYETALSLELASKVSHAFAEANIQEDIEIHADIGSNRKGKTYPLINEITGWITGEGYKYQIKPYSYAASCIADKISK
MGSDKIHHHHHHMHTDINALFAALWQDYIQMTPSAAKVHALLGHGKPIINDHIALRTFNIAKVNLDVLAKHFTSLGYVACGDYKFEQKKLVAKHFEHPDSTQPKVFISELLVEEFSPALQATIQGLIAQVDVAATTADNFIYSGRHWSLDSQTYEDLLAESEYAAWVAAFGYRANHFTVSINHLDGFDTLESVNNALKQAGFVLNSSGGEIKGSPEVLLEQSSTMADKIGVEFTNATVEIPSCFYEFALRYPMANGELYTGFVAASADKIFESTNVNKA
MGSDKIHHHHHHMHVDIELPLGRATALQRLRAQGFCVLTPAALETLTGMPLDAFDMMLPYWEELAPDLHLKDGGHYRYRRHGCFMQTLQPGQLETVQHRAHWQPTTYNALHGGMERWFEPLSNEMIHLPSWSALLVALGELFAKLRAPQGGRWYIEAHPFRIDTEGGVGRPTPEGAHRDGVDFVAVVFIGRQGVRGGETRVFDAAGPQGVRFTLEQPWTVLLLDDQQVIHESTPLLPLDPADPAVPAHRDTLVLTYRSGGFQAPA
MGSDKIHHHHHHMHYLPFIRVVMNTADEDAQMERDEWASREVMPITNWGRRPDGSEIVQYDAPMFFSFTEHSLLHQYPHMRAECHWHVDLELTYIIHGHMWYFVNGETVRLDEGQAIFVNSRQLHYGFTKDGSDCEFSCTLLNPAKMCASFEVYDRFIAPLMAENTMPYAVITDDTAPGRRLLATIRQLHAAKFGPLERSERSAEPLPADDMTLTDNTEALTVLSCFYAVVRDILAIAGSHCATSTAPHPRIVTLRKMIDYVQRYYVRPITLKQIASAGSVGRTTCASIFRESLNQSPIEFVNDVRVRAAANLLVTSSLPIATVAKQTGFSSASFFSRTFHRFMGVTPITYRTTHTKRKSEE
